The source of these data is patent US20230071889A1 (OSE IMMUNOTHERAPEUTICS, published 2023).

One may read the Kd as the concentration at which binding is half-saturated. Higher therefore signals weaker binding.

The target in assay [1] is T1, CD132 receptor (Sinobiological 10555-H08B) (UniProt P31785 23-254).
T1 construct: Bought protein injected over the CD127/IL-7 complex in Biacore; also called common γ chain
T1 sequence (looked up): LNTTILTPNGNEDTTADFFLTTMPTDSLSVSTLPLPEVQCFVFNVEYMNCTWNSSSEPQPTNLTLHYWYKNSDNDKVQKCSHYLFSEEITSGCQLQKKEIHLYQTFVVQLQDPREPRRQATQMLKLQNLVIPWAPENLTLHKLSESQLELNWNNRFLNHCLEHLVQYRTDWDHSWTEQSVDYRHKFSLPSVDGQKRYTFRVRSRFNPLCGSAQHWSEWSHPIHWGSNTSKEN
Put plainly: Biacore, CD132 injected over the CD127/IL-7 complex on the chip. The protocol: CD127 (Sinobiological, 10975-H03H-50) was immobilized onto a CM5 biochip at 20 μg/ml and the indicated protein were added at serial concentrations (0.34; 1.03; 3.11; 9.3; 28 nM).

Assay [2] addresses T2, recombinant human PD-1 (Example 2) (human, UniProt Q15116 25-167, limits assumed, biotinylated in the PD-L1 ELISA (site not stated)).
T2 construct: Biotinylated form in the ELISA on PD-L1; recombinant human PD-1 (100 nM) in the Biacore assay on PD-L2; also called biotinylated recombinant human PD-1; PD-1 recombinant protein
Description: competition ELISA: PD-L1 coated, antibody mixed with biotinylated PD-1 at 0.6 ug/mL, streptavidin peroxidase; blocked ligand PD-L1. A general note: In an ELISA, binding on a coated surface is turned into a signal by an enzyme label.

T2 sequence (Q15116 25-167 limits assumed): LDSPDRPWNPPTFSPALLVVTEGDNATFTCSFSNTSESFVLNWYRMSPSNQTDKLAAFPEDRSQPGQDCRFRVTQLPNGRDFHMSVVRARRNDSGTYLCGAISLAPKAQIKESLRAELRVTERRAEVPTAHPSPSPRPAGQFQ

B1: recombinant IL-7 cytokine (rIL7) (Biorad PHP046) (ligand, human, UniProt P13232 26-177, looked up)
chain: DCDIEGKDGKQYESVLMVSIDQLLDSMKEIGSNCLNNEFNFFKRHICDANKEGMFLFRAARKLRQFLKMNSTGDFDLHLLKVSEGTTILLNCTGQVKGRKPAALGEAQPTKSLEENKSLKEQKKLNDLCFLKRLLQEIKTCWNKILMGTKEH
notes: Bought cytokine
With B1, the Kd in assay [1] worked out at 198 nM.

B2: anti-PD1 antibody, chimeric form (antibody, human IgG4 S228P, kappa, V domains shown)
VH: QIQLVQSGPELKKPGETVKISCKASGYTFTHYGMNWVKQAPGKGLKWMGWINTNTGEPTYAEEFKGRFAFSLETSASAAFLQINNLKNEDTATYFCAKEREPGMDSWGQGTSVTVSS
VL: DVLLTQTPLSLPVSLGDQASISCRSSQNIVHANGNTYLEWYLQKPGQSPKLLIYKVSNRFSGVPDRFSGSGSGTDFTLKITRVEAEDLGVYYCFQGSHVPNTFGGGTKLEIKR
notes: also called anti-PD1 alone
As for B2, the “IC50 (read off the curve)” value in assay [2] is about 4 nM.
